Data reported in the supplement of paper PMC10567573.

B1: POMT2 (parent)
chain: VLRSRIRFIHLVTGCVLGSSGKVL
B2: ZNF263 (parent)
chain: FAHSSNLLRHQRIHTGERPYKCPE

Variants of: B1
Test: protein stability index of a GFP-peptide fusion (GPS, HEK-293T) (PSI 1-6); higher = more stable
Conditions: c terminus: a fixed tail appended
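Further: lentivirally expressed fusions sorted by FACS into six bins by GFP to DsRed ratio, PSI derived from sequencing read proportions per bin multiplied by bin number.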

Protein stability index of substitutions, site by site:
S4: Q 3.06; E 2.36; L 3.33; H 2.09; N 4.14; D 2.56; K 3.75; Y 3.18; T 3.04; I 2.53; R 2.66; V 2.38; F 2.29
L2: V 2.83; N 2.4; F 2.75; K 3.28; Q 3.47; P 1.76; A 3.86; D 3.93; M 2.49; C 2.48; R 3.38; S 2.72; E 1.06; I 2.71; H 2.81
R5: S 1.06; W 2.14; P 3.07; I 2.1; G 2.25; T 1.99; M 2.92; D 2.67; E 2.83; H 2.82; N 2.48; F 2.21; L 3.1; V 2.4
V1: H 2.8; N 3.04; E 2.61; K 2.88; S 3.21; R 1.96; G 1.39; Y 2.51; L 2.15; M 3.35; A 2.38; P 3.01; T 3; W 1.4; I 2.76; D 2.88
R3: P 3.15; A 1.24; N 2.43; H 2.39; C 2.14; L 2.04; V 2.18; M 3.2; Y 2.82; G 3.29; I 3.85; F 2.27; T 2.65; E 2.31; S 3.27

Variants of: B2
Test: as above
Conditions: c terminus: a fixed tail appended

Protein stability index: each site, then its substitutions
G16: T 2.56; Y 1.93; V 2.1; P 2.37; E 2.67; K 2.23; H 2.02; A 2.37; R 1.57; F 1.37; M 1.88; N 2.43; Q 2.01; I 2.22; C 2.36; D 2.77; W 1.32; L 2.07; S 1.97
C22: M 2.26; G 2.36; W 2.08; Q 2.9; T 2.03; K 2.15; Y 2.44; S 3.48; D 3.74; I 2.06; P 2.58; F 2.08; R 2.29; L 2.25; E 3.37; H 2.8; N 2.95; V 2.13; A 3.1
E24: Y 2.28; F 1.59; N 1.88; A 1.89; I 1.7; G 1.92; P 1.87; S 1.84; T 1.87; L 1.48; Q 2.33; K 2.46; R 2.15; H 2.16; D 2.44; V 1.56; C 1.56; M 2.4; W 2.72
R18: I 2.21; M 2.2; T 2.27; C 2.23; Q 2.36; A 2.68; L 2.39; F 2.16; G 2.54; Y 1.86; P 2.45; D 3.28; W 2.66; V 2.46; S 2.35; N 2.45; E 3.36; K 2.09; H 2.52
T15: I 2.29; F 2.58; C 1.95; P 1.87; D 2.56; V 2.68; A 1.97; H 2.12; Y 2.23; E 2.24; Q 2.19; K 1.99; W 1.6; M 2.36; L 2.36; R 2.5; N 2.36; S 2.65
